Reference: article PMC6928932

Tests used:
[1] = molecular target: human gastric mucin MUC6 (human (endogenous in gastric corpus tissue)) (UniProt Q6W4X9); assay: far-Western, overlay or dot blot; as the overlay on fractions B12/C1, but with 30 mM EDTA and no added Ca2+
[2] = molecular target: mucins (PAS-positive high-molecular-mass peak of human gastric extracts, containing MUC5AC and MUC6); assay: SEC + native gel or EMSA; human gastric extracts (conventional extract, extract E1) on Superdex 75 HL, 20 mM Tris-HCl pH 7.0, 30 mM NaCl; fractions analysed by 1% AgGE and Western blot; semi-quantitative TFF2 content

UniProt Q6W4X9, sequence (Q6W4X9 23-2439): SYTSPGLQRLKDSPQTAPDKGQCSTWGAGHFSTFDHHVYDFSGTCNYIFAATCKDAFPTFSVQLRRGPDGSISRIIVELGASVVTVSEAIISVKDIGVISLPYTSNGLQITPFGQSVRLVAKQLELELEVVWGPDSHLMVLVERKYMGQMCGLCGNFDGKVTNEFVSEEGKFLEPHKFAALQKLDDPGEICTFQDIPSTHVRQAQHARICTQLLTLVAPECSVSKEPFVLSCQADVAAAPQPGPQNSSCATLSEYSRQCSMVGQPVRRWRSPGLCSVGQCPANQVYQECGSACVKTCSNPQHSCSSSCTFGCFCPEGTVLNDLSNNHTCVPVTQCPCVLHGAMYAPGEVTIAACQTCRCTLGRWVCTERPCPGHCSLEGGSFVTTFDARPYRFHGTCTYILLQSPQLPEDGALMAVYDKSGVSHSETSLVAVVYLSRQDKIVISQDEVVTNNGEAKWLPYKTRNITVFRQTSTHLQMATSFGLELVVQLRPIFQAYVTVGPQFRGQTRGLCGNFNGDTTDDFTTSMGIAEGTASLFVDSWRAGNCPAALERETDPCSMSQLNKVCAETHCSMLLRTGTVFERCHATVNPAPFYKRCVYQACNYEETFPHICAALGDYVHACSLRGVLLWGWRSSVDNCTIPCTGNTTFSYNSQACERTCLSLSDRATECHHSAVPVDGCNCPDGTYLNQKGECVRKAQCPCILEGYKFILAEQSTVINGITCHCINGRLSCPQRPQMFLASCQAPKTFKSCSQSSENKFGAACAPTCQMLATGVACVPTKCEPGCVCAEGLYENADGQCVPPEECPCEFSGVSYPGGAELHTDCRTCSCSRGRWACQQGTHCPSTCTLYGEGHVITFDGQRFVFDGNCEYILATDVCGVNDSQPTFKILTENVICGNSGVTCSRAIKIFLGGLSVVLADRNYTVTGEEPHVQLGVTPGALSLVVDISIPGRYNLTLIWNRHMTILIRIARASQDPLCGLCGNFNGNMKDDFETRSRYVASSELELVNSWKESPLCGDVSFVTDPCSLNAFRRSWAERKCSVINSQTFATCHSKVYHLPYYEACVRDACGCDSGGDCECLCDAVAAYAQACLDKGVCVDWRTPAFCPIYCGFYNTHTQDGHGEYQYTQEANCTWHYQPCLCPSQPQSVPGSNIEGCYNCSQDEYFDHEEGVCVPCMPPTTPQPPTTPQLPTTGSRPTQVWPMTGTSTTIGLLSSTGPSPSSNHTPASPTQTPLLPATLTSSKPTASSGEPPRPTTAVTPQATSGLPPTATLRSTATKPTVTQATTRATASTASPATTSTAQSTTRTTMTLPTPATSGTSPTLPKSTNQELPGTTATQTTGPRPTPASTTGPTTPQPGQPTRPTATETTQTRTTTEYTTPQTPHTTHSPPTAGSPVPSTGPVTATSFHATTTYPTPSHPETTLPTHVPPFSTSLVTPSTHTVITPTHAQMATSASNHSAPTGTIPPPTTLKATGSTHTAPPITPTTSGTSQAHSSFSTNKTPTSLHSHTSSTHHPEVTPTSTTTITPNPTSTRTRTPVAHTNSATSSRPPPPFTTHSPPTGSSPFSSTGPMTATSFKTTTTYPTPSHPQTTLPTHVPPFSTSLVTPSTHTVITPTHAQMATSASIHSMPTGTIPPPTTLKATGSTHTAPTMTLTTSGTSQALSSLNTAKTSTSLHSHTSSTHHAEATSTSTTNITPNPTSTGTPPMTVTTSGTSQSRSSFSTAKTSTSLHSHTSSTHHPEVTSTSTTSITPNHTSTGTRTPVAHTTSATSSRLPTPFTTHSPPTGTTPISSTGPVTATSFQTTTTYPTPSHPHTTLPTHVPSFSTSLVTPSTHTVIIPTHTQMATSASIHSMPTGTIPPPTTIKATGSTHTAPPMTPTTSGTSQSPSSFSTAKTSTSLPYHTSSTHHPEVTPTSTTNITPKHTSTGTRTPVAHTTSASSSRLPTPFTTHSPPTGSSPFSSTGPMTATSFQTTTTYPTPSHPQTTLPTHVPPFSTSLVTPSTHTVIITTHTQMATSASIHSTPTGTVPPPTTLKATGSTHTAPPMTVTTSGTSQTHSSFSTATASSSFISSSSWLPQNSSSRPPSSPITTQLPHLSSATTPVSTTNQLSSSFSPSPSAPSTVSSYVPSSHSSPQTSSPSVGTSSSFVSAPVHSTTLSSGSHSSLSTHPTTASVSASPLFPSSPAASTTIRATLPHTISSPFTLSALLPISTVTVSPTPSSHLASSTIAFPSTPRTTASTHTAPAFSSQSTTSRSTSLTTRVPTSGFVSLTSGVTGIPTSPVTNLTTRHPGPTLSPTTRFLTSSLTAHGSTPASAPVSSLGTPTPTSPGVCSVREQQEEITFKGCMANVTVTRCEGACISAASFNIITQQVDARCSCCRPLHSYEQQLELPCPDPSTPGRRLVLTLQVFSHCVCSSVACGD

relative amount of TFF2 bound with 30 mM EDTA [1] [%]	percent of TFF2 in the high-molecular-mass form (extract E1) [2] [%]	Molecule
10		125I-labeled recombinant human glycosylated TFF2 (from UniProt Q03403 24-129) (natural protein)
	86	human gastric TFF2 (endogenous) (natural protein, mainly N-glycosylated, to a minor extent non-glycosylated) EKPSPCQCSRLSPHNRTNCGFPGITSDQCFDNGCCFDSSVTGVPWCFHPLPKQESDQCVMEVSDRRNCGYPGISPEECASRKCCFSNFIFEVPWCFFPKSVEDCHY
